Experimental data: patent US20140072613A1, “Compositions and Methods for Treating Cutaneous Scarring” (priority 2012, published 2014)

What was measured:
Assay in all cases: cell-based or functional assay
[1] = biological target: EGFR(T790M)(h) (human) (UniProt P00533)
[2] = biological target: SAPK2a(h) (human) (UniProt Q16539)
[3] = biological target: T1, MST1(h) (human) (UniProt Q13043)
T1 sequence (looked up): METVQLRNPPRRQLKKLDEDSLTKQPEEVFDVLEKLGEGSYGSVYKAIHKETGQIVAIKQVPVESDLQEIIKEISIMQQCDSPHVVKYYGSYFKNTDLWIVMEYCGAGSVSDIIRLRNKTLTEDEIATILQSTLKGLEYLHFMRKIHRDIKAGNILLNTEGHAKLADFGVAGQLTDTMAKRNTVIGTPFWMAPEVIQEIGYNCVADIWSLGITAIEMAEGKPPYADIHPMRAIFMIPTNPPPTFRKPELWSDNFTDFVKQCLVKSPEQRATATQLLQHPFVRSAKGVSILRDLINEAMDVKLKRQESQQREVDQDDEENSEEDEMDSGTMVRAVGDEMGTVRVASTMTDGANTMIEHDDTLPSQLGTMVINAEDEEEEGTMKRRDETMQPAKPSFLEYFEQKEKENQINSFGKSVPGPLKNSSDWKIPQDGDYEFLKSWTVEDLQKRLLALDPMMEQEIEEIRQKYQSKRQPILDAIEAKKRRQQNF

[4] = biological target: MSK2(h) (human) (UniProt O75676)
[5] = biological target: MuSK(h) (human) (UniProt O15146)
[6] = biological target: T2, GRK7(h) (human) (UniProt Q8WTQ7)
T2 sequence (looked up): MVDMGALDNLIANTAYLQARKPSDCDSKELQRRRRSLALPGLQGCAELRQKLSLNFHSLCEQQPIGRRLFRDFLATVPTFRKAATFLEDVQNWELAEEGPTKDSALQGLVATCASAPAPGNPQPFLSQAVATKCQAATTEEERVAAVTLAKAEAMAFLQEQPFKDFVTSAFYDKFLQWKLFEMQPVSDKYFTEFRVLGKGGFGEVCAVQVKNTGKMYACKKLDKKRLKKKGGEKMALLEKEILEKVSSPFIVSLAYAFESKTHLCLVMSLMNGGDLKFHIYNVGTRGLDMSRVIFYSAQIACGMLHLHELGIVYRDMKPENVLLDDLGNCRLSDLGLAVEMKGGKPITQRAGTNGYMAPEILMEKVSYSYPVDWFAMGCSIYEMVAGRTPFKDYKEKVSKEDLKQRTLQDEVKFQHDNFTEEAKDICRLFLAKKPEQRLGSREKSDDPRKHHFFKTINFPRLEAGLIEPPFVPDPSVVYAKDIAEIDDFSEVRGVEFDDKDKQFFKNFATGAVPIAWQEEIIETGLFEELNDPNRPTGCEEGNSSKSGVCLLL

[7] = biological target: T3, NEK3(h) (human) (UniProt P51956)
T3 sequence (looked up): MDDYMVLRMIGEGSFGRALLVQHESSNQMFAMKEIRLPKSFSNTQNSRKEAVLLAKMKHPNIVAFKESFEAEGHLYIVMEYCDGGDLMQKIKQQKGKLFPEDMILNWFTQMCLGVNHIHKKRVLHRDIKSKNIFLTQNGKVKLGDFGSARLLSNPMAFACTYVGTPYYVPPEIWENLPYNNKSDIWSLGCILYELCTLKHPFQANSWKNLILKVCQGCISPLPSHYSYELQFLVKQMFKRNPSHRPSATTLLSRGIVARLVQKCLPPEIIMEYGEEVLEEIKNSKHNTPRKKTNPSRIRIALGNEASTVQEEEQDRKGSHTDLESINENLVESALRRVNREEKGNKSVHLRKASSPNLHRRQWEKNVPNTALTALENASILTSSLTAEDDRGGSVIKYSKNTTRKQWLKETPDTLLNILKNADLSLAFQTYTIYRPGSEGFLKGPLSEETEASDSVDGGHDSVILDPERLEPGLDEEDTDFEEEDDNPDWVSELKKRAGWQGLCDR

[8] = biological target: CHK2(R145W)(h) (human) (UniProt O96017)
[9] = biological target: PKCε(h) (human) (UniProt Q02156)
[10] = biological target: Fes(h) (human) (UniProt P07332)
[11] = biological target: CDK2/cyclinE(h) (human) (UniProt P24941)
[12] = biological target: cKit(D816H)(h) (human) (UniProt P10721)
[13] = biological target: PASK(h) (human) (UniProt Q96RG2)
[14] = biological target: KDR(h) (human) (UniProt P35968)
[15] = biological target: Mnk2(h) (human) (UniProt Q9HBH9)
[16] = biological target: T4, Haspin(h) (human) (UniProt Q8TF76)
T4 sequence (looked up): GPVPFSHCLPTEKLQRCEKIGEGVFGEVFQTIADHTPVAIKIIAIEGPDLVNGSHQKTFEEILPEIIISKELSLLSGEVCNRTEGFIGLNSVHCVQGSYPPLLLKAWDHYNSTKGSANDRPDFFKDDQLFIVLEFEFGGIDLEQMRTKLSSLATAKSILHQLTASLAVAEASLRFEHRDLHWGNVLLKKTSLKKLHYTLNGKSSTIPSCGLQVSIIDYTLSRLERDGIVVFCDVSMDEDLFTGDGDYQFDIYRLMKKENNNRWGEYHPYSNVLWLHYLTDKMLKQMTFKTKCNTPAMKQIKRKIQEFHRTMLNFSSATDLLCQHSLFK

[17] = biological target: T5, DCAMKL2(h) (human) (UniProt Q8N568)
T5 sequence (looked up): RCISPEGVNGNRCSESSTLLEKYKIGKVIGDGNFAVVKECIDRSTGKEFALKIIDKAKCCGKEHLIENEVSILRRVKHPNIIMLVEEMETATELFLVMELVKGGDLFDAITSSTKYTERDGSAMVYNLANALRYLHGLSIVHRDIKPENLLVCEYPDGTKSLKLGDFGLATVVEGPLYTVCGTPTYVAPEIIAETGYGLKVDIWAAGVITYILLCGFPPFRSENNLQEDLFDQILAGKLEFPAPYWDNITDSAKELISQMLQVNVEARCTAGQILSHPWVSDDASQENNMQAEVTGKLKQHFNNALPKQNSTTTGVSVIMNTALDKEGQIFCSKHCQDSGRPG

[18] = biological target: CaMKIV(h) (human) (UniProt Q16566)
[19] = biological target: Abl(H8396P)(h) (human) (UniProt P00519)
Sequence of Abl(H8396P)(h) (human) (P00519 27-1130, stated change not applied): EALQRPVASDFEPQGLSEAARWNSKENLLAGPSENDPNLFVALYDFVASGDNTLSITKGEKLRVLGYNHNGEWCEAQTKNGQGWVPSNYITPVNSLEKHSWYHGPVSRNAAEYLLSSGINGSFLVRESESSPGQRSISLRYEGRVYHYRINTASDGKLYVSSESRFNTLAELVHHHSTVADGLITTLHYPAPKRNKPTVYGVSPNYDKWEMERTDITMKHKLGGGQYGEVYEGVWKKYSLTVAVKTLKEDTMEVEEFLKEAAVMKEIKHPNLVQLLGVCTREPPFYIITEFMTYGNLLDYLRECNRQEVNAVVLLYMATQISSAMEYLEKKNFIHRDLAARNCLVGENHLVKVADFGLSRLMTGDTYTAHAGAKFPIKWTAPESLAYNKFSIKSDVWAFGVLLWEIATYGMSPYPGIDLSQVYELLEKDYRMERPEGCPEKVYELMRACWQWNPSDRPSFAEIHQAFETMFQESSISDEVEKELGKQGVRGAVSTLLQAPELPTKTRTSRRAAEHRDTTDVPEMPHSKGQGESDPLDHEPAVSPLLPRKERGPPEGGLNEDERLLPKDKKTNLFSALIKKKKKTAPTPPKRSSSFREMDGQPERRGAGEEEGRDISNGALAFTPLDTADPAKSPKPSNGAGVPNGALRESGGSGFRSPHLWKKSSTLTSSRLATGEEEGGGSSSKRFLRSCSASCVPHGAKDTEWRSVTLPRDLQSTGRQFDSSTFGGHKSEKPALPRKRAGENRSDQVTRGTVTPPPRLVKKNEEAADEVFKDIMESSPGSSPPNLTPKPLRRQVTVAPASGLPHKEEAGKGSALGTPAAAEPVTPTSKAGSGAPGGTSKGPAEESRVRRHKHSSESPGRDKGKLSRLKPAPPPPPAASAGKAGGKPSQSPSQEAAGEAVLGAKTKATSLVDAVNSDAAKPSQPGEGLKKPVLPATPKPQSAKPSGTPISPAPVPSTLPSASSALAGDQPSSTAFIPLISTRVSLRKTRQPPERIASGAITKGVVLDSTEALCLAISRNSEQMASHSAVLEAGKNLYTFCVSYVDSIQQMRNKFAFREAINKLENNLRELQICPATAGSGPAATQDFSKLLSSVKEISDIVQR

Sequence of Fes(h) (human) (P07332 whole entry): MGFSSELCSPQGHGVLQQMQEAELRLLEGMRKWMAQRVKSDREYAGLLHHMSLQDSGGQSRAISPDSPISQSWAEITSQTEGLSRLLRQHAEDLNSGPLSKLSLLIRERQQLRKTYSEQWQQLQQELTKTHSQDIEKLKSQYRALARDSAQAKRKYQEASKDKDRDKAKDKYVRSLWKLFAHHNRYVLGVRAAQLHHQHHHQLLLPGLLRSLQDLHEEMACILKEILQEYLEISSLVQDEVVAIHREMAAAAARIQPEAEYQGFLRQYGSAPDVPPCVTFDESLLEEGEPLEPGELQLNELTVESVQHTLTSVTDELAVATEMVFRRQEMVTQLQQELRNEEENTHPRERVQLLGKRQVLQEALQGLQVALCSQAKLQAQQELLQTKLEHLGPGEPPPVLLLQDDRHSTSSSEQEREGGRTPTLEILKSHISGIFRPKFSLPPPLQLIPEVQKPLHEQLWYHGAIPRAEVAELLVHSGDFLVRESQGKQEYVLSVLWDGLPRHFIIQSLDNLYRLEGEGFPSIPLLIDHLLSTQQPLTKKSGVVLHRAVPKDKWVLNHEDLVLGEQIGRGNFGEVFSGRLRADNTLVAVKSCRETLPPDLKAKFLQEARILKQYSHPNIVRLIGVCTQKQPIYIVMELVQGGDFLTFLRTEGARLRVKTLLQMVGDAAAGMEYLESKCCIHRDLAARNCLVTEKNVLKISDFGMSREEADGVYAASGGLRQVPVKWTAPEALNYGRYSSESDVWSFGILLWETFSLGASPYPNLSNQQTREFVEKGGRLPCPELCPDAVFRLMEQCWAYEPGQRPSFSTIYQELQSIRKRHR
Sequence of CHK2(R145W)(h) (human) (O96017 5-543 R145W limits assumed): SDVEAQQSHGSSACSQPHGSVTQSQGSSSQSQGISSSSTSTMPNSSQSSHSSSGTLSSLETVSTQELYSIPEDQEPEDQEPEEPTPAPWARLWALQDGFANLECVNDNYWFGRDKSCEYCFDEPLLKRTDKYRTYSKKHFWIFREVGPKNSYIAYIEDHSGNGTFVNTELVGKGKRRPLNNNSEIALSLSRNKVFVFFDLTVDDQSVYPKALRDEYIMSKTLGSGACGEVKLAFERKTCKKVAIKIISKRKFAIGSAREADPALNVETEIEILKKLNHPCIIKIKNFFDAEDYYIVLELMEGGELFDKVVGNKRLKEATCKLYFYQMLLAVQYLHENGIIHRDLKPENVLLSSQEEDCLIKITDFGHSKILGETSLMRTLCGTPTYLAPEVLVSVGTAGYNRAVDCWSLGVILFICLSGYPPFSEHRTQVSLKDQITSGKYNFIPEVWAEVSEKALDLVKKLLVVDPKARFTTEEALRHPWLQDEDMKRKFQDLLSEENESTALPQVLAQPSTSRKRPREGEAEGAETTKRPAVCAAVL
Sequence of CaMKIV(h) (human) (Q16566 whole entry): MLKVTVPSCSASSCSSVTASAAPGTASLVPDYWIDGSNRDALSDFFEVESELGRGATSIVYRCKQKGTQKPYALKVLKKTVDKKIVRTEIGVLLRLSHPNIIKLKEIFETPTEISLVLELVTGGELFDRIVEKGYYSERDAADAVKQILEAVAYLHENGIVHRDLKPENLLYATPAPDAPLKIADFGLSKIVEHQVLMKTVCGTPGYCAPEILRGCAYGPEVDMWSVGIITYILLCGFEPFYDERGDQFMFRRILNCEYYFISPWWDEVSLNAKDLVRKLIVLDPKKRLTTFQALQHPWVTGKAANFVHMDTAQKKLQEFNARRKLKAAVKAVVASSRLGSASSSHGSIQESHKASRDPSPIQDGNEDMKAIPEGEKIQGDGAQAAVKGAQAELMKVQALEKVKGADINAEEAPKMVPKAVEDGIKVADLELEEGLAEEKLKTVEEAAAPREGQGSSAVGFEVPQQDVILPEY
Sequence of KDR(h) (human) (P35968 790-1356 limits assumed): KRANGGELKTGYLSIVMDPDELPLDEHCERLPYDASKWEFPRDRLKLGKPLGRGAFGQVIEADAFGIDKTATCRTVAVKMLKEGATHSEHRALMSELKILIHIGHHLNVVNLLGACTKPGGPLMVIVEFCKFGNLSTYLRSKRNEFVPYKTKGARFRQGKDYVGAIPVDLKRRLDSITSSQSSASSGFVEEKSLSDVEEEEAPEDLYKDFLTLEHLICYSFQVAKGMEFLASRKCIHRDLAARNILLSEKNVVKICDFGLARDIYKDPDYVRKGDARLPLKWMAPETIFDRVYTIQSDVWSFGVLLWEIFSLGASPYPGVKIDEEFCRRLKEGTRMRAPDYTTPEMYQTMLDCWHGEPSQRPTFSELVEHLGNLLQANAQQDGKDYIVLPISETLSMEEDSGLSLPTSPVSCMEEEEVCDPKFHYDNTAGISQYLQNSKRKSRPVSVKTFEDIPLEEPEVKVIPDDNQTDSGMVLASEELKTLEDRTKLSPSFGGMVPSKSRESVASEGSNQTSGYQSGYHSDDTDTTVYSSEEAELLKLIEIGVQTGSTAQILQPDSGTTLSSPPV
Sequence of MSK2(h) (human) (O75676 whole entry): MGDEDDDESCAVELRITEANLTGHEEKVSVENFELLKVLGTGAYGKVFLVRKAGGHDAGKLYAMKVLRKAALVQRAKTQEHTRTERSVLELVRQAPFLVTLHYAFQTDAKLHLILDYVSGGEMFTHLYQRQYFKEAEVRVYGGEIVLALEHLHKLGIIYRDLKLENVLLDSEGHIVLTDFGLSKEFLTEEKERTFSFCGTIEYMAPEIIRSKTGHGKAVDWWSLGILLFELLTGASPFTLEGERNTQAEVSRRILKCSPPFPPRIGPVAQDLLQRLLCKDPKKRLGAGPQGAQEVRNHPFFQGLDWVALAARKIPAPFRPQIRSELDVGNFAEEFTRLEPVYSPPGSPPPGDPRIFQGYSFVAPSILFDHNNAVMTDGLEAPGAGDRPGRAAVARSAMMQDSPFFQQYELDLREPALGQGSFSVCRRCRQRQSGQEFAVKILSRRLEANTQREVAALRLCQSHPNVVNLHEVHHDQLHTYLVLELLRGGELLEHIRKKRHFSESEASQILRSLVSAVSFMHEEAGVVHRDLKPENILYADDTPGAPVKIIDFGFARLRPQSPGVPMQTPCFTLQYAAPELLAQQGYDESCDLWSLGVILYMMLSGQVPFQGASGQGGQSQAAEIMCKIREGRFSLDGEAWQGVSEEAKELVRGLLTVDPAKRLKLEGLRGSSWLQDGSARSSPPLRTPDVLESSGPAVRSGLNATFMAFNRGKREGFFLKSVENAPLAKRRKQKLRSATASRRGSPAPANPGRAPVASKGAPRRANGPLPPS
Sequence of SAPK2a(h) (human) (Q16539 whole entry): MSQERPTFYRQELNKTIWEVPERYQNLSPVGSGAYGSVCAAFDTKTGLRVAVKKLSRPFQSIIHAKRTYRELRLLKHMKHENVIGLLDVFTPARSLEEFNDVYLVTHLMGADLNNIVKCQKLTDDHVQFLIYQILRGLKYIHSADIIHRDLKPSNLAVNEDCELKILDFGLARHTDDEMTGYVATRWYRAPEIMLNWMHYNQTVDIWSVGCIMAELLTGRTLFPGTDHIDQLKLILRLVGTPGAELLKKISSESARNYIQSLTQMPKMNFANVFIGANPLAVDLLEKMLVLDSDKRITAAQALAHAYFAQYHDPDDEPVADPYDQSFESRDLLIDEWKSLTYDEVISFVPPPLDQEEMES
Sequence of MuSK(h) (human) (O15146 517-869 limits assumed): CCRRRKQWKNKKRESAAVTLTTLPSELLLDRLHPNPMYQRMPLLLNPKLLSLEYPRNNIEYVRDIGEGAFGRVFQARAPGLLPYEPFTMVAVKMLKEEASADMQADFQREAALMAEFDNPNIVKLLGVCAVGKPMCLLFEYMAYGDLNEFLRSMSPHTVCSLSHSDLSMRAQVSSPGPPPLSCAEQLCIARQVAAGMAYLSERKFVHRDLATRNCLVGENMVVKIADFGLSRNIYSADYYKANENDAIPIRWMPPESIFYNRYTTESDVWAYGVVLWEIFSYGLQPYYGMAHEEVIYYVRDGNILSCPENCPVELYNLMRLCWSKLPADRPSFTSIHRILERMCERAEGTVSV

MMI-0500 (peptide)
% activity, 100 µM [1]: 70% | % activity, 100 µM [2]: 52% | % activity, 100 µM [3]: 3% | % activity, 100 µM [4]: 14% | % activity, 100 µM [5]: 27% | % activity, 100 µM [6]: 93% | % activity, 100 µM [7]: 20% | % activity, 100 µM [8]: 3% | % activity, 100 µM [9]: 23% | % activity, 100 µM [10]: 23% | % activity, 100 µM [11]: 19% | % activity, 100 µM [12]: 194% | % activity, 100 µM [13]: 9% | % activity, 100 µM [14]: 15% | % activity, 100 µM [15]: 6% | % activity, 100 µM [16]: 25% | % activity, 100 µM [17]: 56% | % activity, 100 µM [18]: -1% | % activity, 100 µM [19]: 51%
